In the assay the target is FLAG-BLM (Bloom's Syndrome helicase) (human) (UniProt P54132).
Chain of UniProt P54132 (P54132 whole entry): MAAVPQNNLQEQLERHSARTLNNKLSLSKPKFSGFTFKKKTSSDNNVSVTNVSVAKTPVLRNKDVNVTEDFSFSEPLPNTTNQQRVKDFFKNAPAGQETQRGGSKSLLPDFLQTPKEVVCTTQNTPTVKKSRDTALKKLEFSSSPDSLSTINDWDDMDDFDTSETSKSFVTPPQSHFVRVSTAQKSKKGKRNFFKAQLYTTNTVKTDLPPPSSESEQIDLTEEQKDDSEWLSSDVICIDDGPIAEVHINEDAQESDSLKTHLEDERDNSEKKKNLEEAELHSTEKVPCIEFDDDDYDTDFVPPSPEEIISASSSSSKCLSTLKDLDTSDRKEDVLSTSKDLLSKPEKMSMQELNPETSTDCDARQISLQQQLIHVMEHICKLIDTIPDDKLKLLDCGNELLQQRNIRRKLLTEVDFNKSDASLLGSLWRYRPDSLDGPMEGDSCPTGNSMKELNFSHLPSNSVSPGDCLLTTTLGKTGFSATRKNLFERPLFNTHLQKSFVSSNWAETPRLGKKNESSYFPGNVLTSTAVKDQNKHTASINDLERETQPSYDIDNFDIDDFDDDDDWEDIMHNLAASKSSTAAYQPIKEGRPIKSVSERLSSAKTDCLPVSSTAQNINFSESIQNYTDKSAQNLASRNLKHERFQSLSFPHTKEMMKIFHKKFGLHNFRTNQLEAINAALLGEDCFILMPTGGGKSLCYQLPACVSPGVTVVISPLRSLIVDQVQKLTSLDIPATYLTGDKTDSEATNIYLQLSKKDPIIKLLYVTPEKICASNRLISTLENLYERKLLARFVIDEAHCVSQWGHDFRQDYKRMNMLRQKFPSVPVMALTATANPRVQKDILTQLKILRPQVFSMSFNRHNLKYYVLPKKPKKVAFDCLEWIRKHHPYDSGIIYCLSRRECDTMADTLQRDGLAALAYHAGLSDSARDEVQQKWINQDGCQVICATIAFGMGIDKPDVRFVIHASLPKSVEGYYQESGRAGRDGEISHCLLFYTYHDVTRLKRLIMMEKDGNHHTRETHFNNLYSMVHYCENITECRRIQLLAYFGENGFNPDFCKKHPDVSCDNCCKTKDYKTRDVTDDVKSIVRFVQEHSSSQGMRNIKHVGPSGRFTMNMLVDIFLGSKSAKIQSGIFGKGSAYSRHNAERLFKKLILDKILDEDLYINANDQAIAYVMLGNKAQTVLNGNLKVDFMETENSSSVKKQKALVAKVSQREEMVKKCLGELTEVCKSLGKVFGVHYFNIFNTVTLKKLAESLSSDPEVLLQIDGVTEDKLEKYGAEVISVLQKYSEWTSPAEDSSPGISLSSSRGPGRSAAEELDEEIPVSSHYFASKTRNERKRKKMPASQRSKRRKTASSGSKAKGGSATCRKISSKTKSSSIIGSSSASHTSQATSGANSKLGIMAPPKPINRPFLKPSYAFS

Regarding “phosphorylated human RPA (pRPA) (from UniProt P27694 1-616; P15927 1-270) (complex)”, the fold decrease in BLM/EXO1 resection processivity after addition of pRPA came to 3 fold and the fraction of BLM/DNA2 molecules that stopped resecting DNA upon addition of pRPA is 30%.

Values taken from doi:10.1101/517771.
